T1: 食蟹猴CTLA-4.ECD-6xHis (cynomolgus monkey) (UniProt G7PL88)
T1 sequence: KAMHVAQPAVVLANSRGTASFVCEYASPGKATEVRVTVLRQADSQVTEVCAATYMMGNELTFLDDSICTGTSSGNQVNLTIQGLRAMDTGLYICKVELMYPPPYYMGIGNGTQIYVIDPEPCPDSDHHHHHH


Legend:
[1] = biological target: 小鼠CTLA-4.ECD-6xHis (mouse) (UniProt P09793); test: SPR; antibody captured, mouse CTLA-4.ECD-6xHis as analyte, 1:1 fit
[2] = biological target: T1, 食蟹猴CTLA-4.ECD-6xHis (cynomolgus monkey); test: SPR; antibody captured, cynomolgus CTLA-4.ECD-6xHis as analyte, 1:1 fit
[3] = biological target: T1, 食蟹猴CTLA-4.ECD-6xHis (cynomolgus monkey); test: ELISA; cynomolgus CTLA-4.ECD-6xHis coated at 0.5 μg/mL
[4] = biological target: 全长人CTLA-4 on cells (293F stable line) (human) (UniProt P16410); test: FACS on 293F cells expressing human CTLA-4
[5] = biological target: 全长人CTLA-4 on cells (293F stable line) (human) (UniProt P16410); test: FACS affinity (modified Benedict method) on cells expressing human CTLA-4
[6] = biological target: 小鼠CTLA-4.ECD-6xHis (mouse) (UniProt P09793); test: ELISA; mouse CTLA-4.ECD-6xHis coated at 0.5 μg/mL
[7] = biological target: 人CTLA-4.ECD.hFc (human) (UniProt P16410); test: FACS competition; biotinylated hCTLA-4.ECD.hFc on CD80-expressing CHO cells (competitor CD80)
[8] = biological target: 人CTLA-4.ECD.hFc (human) (UniProt P16410); test: FACS competition; biotinylated hCTLA-4.ECD.hFc on CD86-expressing CHO cells (competitor CD86)
[9] = biological target: 人CTLA-4.ECD.hFc (human) (UniProt P16410); test: competition ELISA; CTLA-4.ECD.hFc coated, competitor CD80-6xHis at 0.25 μg/mL
[10] = biological target: 人CTLA-4.ECD.hFc (human) (UniProt P16410); test: competition ELISA; CTLA-4.ECD.hFc coated, competitor CD86-6xHis at 0.25 μg/mL
[11] = biological target: 人CTLA-4.ECD-6xHis (human) (UniProt P16410); test: SPR (Biacore T200); antibody captured on anti-human Fc, hCTLA-4.ECD-6xHis as analyte, 1:1 fit
[12] = biological target: 人CTLA-4.ECD-6xHis (human) (UniProt P16410); test: ELISA; human CTLA-4.ECD-6xHis coated at 1.0 μg/mL

Binder	Kd [1]	Kd [2]	EC50 [3]	EC50 [4]	Kd [5]	EC50 [6]	IC50 [7]	percent of CTLA-4 binding blocked at the highest concentration [7]	IC50 [8]	percent of CTLA-4 binding blocked at the highest concentration [8]	IC50 [9]	IC50 [10]	Kd [11]	EC50 [12]
W3162-1.146.19-z12-IgGk (antibody, from another filing, V domains shown) VH: QVQLQESGPGLVKPSETLSLTCSVTYHTITSGYDWTWIRKPPGKGMEWIGYISYSGNTNYNPSLKSRVTISRDTSKNQFFLKLSSVTAADTAVYYCASMMVPHYYVMDAWGQGTLVTVSS VL: DIVMTQTPLSLSVTPGQPASISCRSSQSLLNSDGNTYLYWYLQKPGQSPQLLIYLVSKLGSGVPNRFSGSGSGTDFTLKISRVEAEDVGVYYCVQGTHDPWTFGGGTKVEIK	1.39 nM	1.92 nM	0.05 nM	1.58 nM	5.05 nM	0.19 nM	6.6 nM	71%	5.15 nM	73%	0.87 nM	0.71 nM	0.477 nM	0.03 nM
W3162-1.154.8-z35-IgGk (antibody, from another filing, V domains shown) VH: QVQLVQSGAEVKKPGSSVKVSCKASGYTFTNYFMNWVRQAPGQGLEWMGRVDPEQGRADYAEKFKKRVTITADKSTSTAYMELSSLRSEDTAVYYCARRAMDNYGFAYWGQGTLVTVSS VL: EIVLTQSPDFQSVTPKEKVTITCSANSALSYMYWYQQKPDQSPKLWVHGTSNLASGVPSRFSGSGSGTDFTLTINSLEAEDAATYYCHHWSNTQWTFGGGTKVEIK	–	0.131 nM	0.05 nM	0.66 nM	0.35 nM	–	0.07 nM	89%	0.28 nM	98%	0.63 nM	0.5 nM	0.0968 nM	0.04 nM

Reference: patent CN108948194A
